One substance from article PMC7350762 can be followed below.

The test concerns the target Myc-tagged MKL-1 (1–705) (MKL-1△TAD) (UniProt Q969V6).
UniProt Q969V6, sequence (Q969V6 1-705): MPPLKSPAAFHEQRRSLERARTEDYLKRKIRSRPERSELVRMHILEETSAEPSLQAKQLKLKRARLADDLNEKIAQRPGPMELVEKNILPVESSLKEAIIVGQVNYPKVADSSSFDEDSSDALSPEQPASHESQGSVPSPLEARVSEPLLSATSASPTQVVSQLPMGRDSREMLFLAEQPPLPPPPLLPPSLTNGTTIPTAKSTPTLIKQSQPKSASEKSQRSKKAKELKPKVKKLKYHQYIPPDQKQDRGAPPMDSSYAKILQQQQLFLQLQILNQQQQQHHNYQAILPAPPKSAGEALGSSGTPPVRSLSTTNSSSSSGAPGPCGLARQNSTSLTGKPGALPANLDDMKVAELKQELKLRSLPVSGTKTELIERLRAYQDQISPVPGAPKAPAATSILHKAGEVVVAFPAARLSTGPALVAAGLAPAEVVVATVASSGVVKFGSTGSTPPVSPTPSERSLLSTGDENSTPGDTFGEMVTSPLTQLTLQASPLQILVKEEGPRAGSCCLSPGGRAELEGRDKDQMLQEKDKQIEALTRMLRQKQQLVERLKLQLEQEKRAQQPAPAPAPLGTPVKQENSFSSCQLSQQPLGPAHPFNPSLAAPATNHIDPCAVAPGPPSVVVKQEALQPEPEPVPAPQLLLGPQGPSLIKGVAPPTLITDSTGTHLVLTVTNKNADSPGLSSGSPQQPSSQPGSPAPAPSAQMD

In turn, “Flag-tagged STAT5b (WT-STAT5b) (from UniProt P51692 1-787) (natural protein)” gave a reduction in MKL-1 transactivation of the Foxp3 reporter (luciferase assay, HEK-293 T cells) by the mutation of the TAD of MKL-1 of 60%.
